Here are results for two molecules from article PMC7496778, “Characterizing the original anti‐C5 function‐blocking antibody, BB5.1, for species specificity, mode of action and interactions with C5” (Immunology, 2020).

Assay [1] concerns the target T1, human complement component 5 (C5) (Homo sapiens, UniProt P01031).
T1 construct: complement C5 beta chain, human, cut from the C5 precursor; complement C5 alpha chain, human, cut from the C5 precursor; also called human C5; source: purified in-house
Briefly: ELISA; direct ELISA; plates coated with mouse or human C5 (0.5 µg/ml, bicarbonate buffer pH 9.6); BB5.1 intact mAb 5-0 µg/ml or Fab 20-0 µg/ml in 0.2% BSA-PBS, 1 hr at 37°; HRP-labelled secondary antibody. The following applies: both partners purified. For orientation: In an ELISA, binding on a coated surface is turned into a signal by an enzyme label.

Assay [2] addresses T2, mouse complement component 5 (C5) (Mus musculus, strain , UniProt P06684).
T2 construct: complement C5 beta chain (80 000 MW), mouse, cut from the C5 precursor; complement C5 alpha chain (115 000 MW), mouse, cut from the C5 precursor; also called mouse C5; intact C5; source: purified in-house
Briefly: SPR; Biacore T200; BB5.1 immobilised on CM5 chip by amine coupling (~200 RU); mouse C5 flowed at 52-4 nM in HBS-EP (10 mM HEPES, 150 mM NaCl, 0.05% surfactant P20), 30 µl/min, 25°; Langmuir 1:1 binding model. The note with it: both partners purified.

T1 sequence (P01031 whole entry, looked up): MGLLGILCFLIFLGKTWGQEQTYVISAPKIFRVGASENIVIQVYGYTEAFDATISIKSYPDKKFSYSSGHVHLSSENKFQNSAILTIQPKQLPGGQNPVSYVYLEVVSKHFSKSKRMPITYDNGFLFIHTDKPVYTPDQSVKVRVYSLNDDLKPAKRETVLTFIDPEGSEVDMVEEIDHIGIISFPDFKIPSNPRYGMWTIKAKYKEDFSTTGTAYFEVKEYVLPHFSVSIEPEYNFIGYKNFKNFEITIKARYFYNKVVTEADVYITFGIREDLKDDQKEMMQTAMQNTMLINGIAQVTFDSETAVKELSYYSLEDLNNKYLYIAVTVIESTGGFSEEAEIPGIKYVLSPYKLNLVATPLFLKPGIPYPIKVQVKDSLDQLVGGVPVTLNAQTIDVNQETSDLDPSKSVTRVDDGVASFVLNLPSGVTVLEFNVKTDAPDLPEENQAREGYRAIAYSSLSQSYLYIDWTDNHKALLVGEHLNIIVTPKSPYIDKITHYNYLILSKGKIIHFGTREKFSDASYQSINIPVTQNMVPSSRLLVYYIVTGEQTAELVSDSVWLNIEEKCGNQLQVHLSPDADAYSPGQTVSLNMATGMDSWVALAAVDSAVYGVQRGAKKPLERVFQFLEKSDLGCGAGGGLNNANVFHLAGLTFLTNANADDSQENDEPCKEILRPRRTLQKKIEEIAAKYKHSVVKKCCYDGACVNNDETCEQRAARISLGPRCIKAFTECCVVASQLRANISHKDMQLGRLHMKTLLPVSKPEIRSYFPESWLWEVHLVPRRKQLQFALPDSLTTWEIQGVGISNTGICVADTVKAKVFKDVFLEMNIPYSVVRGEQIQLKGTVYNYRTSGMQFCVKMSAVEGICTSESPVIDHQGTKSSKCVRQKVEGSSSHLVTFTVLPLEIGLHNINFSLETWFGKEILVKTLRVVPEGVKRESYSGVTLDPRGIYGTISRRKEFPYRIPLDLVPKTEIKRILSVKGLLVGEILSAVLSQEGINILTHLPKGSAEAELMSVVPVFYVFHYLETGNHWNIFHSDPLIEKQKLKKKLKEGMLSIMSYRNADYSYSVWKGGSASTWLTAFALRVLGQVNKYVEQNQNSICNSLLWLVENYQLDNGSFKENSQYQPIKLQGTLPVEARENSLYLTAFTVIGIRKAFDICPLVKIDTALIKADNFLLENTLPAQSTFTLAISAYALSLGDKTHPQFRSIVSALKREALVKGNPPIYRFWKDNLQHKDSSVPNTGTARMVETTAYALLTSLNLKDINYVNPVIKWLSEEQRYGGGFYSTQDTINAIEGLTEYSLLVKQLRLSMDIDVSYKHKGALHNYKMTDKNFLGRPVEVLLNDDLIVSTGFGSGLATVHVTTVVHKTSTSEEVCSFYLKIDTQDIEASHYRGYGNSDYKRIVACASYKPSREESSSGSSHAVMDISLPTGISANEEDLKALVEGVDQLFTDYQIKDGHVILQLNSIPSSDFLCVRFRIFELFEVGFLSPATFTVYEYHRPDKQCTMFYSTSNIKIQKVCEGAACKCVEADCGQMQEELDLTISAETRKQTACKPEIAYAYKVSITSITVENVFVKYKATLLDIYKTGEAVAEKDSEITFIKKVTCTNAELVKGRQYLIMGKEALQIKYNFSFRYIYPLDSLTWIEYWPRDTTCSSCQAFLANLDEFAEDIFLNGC

B1: BB5.1 anti-C5 monoclonal antibody (intact mAb) (antibody, V domains shown)
VH: QVQLQQPGAELVRPGTSVKLSCKASGYTFTSSWMHWVKQRPGQGLEWIGVIDPSDSYTNYNQKFKGKATLTVDTSSSTAYMQLSSLTSEDSAVYYCARGGGSSYNRYFDVWGTGTTVTVSS
VL: NIMMTQSPSSLAVSAGEKVTMSCKSSQSVLYSSNQKNYLAWYQQKPGQSPKLLIYWASTRESGVPDRFTGSGSGTDFTLTISSVQAEDLAVYYCHQYLSSRTFGGGTKLEIK
notes: full variable heavy domain; full variable light domain; raised in C5-deficient mice; also called BB5.1 mAb; full-length BB5.1; source: BB5.1 hybridoma (re-cloned), purified on HiTrap Protein G sepharose
The Kd is the free concentration of one partner at which half of the binding sites on the other are occupied at equilibrium, for simple one-to-one binding. As usually defined, the koff is the rate constant with which the complex falls apart. On to B1, for which, in assay [1], the binding result was “no binding (tested: 5 µg/ml)”. In addition, in assay [2], the dissociation constant Kd came out at 8.1 nM and the dissociation rate constant (koff) stood at 0.0013 s⁻¹.

B2: BB5.1 Fab fragments (Fab, V domains shown)
VH: QVQLQQPGAELVRPGTSVKLSCKASGYTFTSSWMHWVKQRPGQGLEWIGVIDPSDSYTNYNQKFKGKATLTVDTSSSTAYMQLSSLTSEDSAVYYCARGGGSSYNRYFDVWGTGTTVTVSS
VL: NIMMTQSPSSLAVSAGEKVTMSCKSSQSVLYSSNQKNYLAWYQQKPGQSPKLLIYWASTRESGVPDRFTGSGSGTDFTLTISSVQAEDLAVYYCHQYLSSRTFGGGTKLEIK
notes: as the VH of m1; as the VL of m1; Fab of a mouse IgG1, kappa antibody; also called BB5.1-derived Fab fragment; source: immobilized ficin digestion of purified BB5.1 mAb; Fc-containing proteins removed on Protein A or G column
Turning to B2, the binding result in assay [1] was “no binding (tested: 20 µg/ml)”.
